From US20140155331A1 (published 2014)
Where no end group is shown, it is not given here. [ ]: non-standard residue; d: D form. Aib = CC(C)(N)C(=O)O

B1: S100B (other)
chain: MSELEKAMVALIDVFHQYSGREGDKHKLKKSELKELINNELSHFLEEIKEQEVVDKVMETLDNDGDGECDFQEFMAFVAMVTTACHEFFEHE
B2: pBDC-TRTK (pBM-TRTK dimerised with a properly designed crosslinker) (peptide)
peptide: fluorescein-TRTKIDW[Aib]KIL[Aib]GGGCG
modifications: not fully specified (residue 16); also: homodimer: two copies joined at Cys16 through BMH, linker at 16 via BMH, other end not in the chain

Experiments:
pBDC-53 = experiment: fluorescence anisotropy
S100B = target: B1; experiment: fluorescence anisotropy

B1 showed a Kd (pBDC-53) of 267 nM.

fluorescein-QST[Aib]RH[Aib]KLMFKT[Aib]G [pBM-53 (Aib substituted p53 monomer peptide)] was tested, and the Kd (S100B) was 4600 nM.

For B2, the Kd (S100B) was 32 nM.
